According to patent publication US20220356497A1, “COMPOSITIONS AND METHODS FOR SYNTHESIS OF TERPENOIDS” (Zymergen Inc., priority 2019, published 2022):
“Also recorded” adds a separate entry of the source.

Assays:
nepetalactol [1] = test: Production of nepetalactone from fed nepetalactol in Saccharomyces cerevisiae strains expressing NOR candidates from pESC-URA; assay type: cell-based; settings: 100 mg/L nepetalactol, 2% galactose, 24 hours
Protocol: The plasmids were individually transformed into chemically competent Saccharomyces cerevisiae cells as described in EXAMPLE 2. Transformants were selected on SD-URA agar plates. Three to four replicates were picked into SD-URA liquid medium and cultured at 30° C. for one to two days with shaking at 1000 rpm. Cultures were glycerol stocked at a final concentration of 16.6% glycerol and stored at −80° C. until later use.
10 μL of the glycerol stocked strains was inoculated into 300 μL of minimal media lacking uracil, and containing 4% glucose in 96-well plates to produce seed cultures. The plates were incubated at 30° C. at 1000 rpm for 1-2 days. 10 μL of the seed cultures was then inoculated into 300 μL of minimal media lacking uracil, and containing 2% galactose and 100 mg/L of nepetalactol. 30 μL of methyl oleate was next added to the wells. […]
Cell density was determined using a spectrophotometer by measuring the absorbance of each well at 600 nm. […] The plates were shaken for 25 sat 750 rpm immediately before being measured on a Tecan M1 000 spectrophotometer. […] The plates were centrifuged and the ethyl acetate layer was collected and analyzed by liquid chromatography coupled to mass spectrometry (LC-MS). Target analytes were quantified against authentic standards.

nepetalactol [2] = test: In vitro characterization of NOR candidates: conversion of nepetalactol to nepetalactone in clarified E. coli cell lysate (GC-MS); assay type: biochemical, Escherichia coli; settings: NAD+ or NADP+, 30° C., 2 hours
Protocol: The plasmids were individually transformed into chemically competent BL21 (DE3) cells. pUC19 was also transformed into BL21 (DE3) to produce a strain that could serve as a negative control. Transformants were selected and grown overnight with shaking in LB medium containing kanamycin. Glycerol stocks were prepared by mixing overnight culture with 50% glycerol in a 1:1 ratio. Glycerol stocks were frozen at −80° C.
BL21 (DE3) strains were streaked out on LB plates containing kanamycin from glycerol stock and grown overnight at 37° C. A single colony was inoculated into 4 mL of LB medium containing kanamycin in 15 mL disposable culture tubes and incubated overnight at 30° C. with shaking at 250 rpm. 500 μL of the overnight culture was subcultured into 50 mL of LB medium containing kanamycin in a 250 mL baffled flask. The culture was grown at 37° C. and the optical density at 600 nm (OD600) was monitored. When OD600 reached between 0.6-1, the cultures were cooled on ice for 15 minutes. The cultures were then induced with 100 μM of isopropyl β-D-1-thiogalactopyranoside and incubated at 15° C. with shaking at 250 rpm for roughly 20 hours. Cultures were pelleted by centrifugation in 50 mL centrifuge tubes. The supernatant was decanted and the pellets were frozen at −20° C. for later processing.
Pellets were thawed on ice and resuspended with 3 mL of cold lysis buffer: 50 mM sodium phosphate, pH=7.4, 100 mM sodium chloride. All remaining steps were performed either on ice or at 4° C. The cell mixture was transferred to a 15 mL centrifuge tube and disrupted with three rounds of sonication using the Branson Sonitier 450 with a double-level microtip at 70% amplitude. A single round of sonication consisted of 6 cycles of 10 seconds with the sonicator on, and 10 seconds off Between each round, the cell mixture was allowed to sit on ice for a minute to cool. The lysed cell mixture was transferred to 1.7 mL centrifuge tubes and centrifuged at maximum speed in a microcentrifuge for 20 minutes. The supernatant (clarified cell lysate) was collected in a separate tube and used for in vitro characterization.
The in vitro reactions were setup as follows: 2 μL of 100 mM NAD+ or NADP+ and 10 μL of 100 uM nepetalactol was added to 188 μL of the clarified cell lysate. The reactions were incubated at 30° C. shaking at 200 rpm for 2 hours. As a positive control, 2 μL of 100 mM NAD+, 2 μL of 100 mM NADP+ and 10 μL of 100 μM nepetalactone was added to 186 μL of clarified lysate from a strain harboring pUC 19 and incubated for 1 hr. The reactions were extracted with one volume of ethyl acetate. The organic layer was withdrawn and analyzed with gas chromatography coupled to mass spectrometry (GC-MS). Authentic standards were run to confirm identities of analytes.

Molecule	nepetalactone produced (nepetalactol [1]) [mg/L]	conversion (oxidation) of nepetalactol to nepetalactone (nepetalactol [2])	conversion (oxidation) of nepetalactol to nepetalactone (nepetalactol [2]; listed as NcatNORI5)
GAR_NOR15: NOR candidate (SEQ ID NO: 1393) expressed in Saccharomyces cerevisiae from pESC-URA (protein, Nepeta cataria or Nepeta mussinii) MADKEGEVVCVTGGSGFIGSWLVSLLLRRGYSVRATVKNLGDERETKHLEAIEGADSRLSLFQIDLLDYDSVATAVGDAAGVFHLASPCTIDQVNDPQRELLDPAIKGTLNVLKAAKNLGVRRVVVTSSISAMIASSNSLAETGEDCWIDEDYCRQNGLWYPVSKALAEKAAWKLAEENGLDIVVVNPGMVVGPILPPALNSSMQLMLHVLQGKDFFEGFFMGLVHVKDVALAQILLYENTSASGRHLCVESLSRYDDFAKQMEKLYPEYKLPRFSNNAQHGSLKSDAALKKLRDLGIEFAPLEQIVKDSIESLRSKGYIS	93		
NcatNOR15: candidate nepetalactol oxidoreductase (NOR) from Nepeta cataria, protein SEQ ID NO: 561 (protein, listed as Nepeta cataria) MAKTPETEHPVKAFGYAATDNSGTFSPFKFSRRATGERDVQFKVLYCGVCHSDLHMVKNEWGVTHYPIVPGHEIVGVATEVGSKVEKVKVGDKVGVGVIVGSCRQCDQCSNDLENYCSKQILTYGAPYLDGTITRGGYSDIMVADEHFIIRWPENFPLDAGAPLLCAGITTYSPLRYFGLDKPGLRVGVNGLGGLGHVAVKFAKAFGTKVTVISSSLRKKKEAVEKLGVDEFLVSTDPEQMQAAIGTLDGIIDTVSAEHSVVSLLSLLKPHGRLIVVGAPEKPHQLPAFPLITGRKSISGSAIGGMKETQEMIDFAAKHNILPDVEVIPIDYINTAMERLLKSDVKYRFVIDVEKSLKA		can convert nepetalactol to nepetalactone	can oxidize nepetalactol to nepetalactone
NcatNOR21: candidate nepetalactol oxidoreductase (NOR) from Nepeta cataria, protein SEQ ID NO: 566 (protein, listed as Nepeta cataria) MAKSVNAVGWAARDTSGLLSPLKFARPAAGDRDVQFKVLYCGICHSDLHSIKNEWGNTQYPIVPGHEIVGVVTAVGPKATKFKAGDKVGVGCLVNSCRHCDQCAADLENYCPQLVQTYNSVLADGSVTYGGYSDVMTADEDFVIRWPENFPMDKGAPLLCAGVTTYSPLRYYGLDKPGLHIGVVGLGGLGHVAVKFAKAFGMKVTVISTSAGKKKEAIETLGADAFLISRDASEMQAAAGTLDGMIDTVSAQHPLPPLLSLLKPHGKLILVGAPEKPFELPAFPLLMGRKTVAGSVIGGLKETQEMIDFAAKHNLLPEVEMIPMDYVNTAMERLAKADVKYRFVIDVGNTLTKAD		can convert nepetalactol to nepetalactone; also recorded: can oxidize nepetalactol to nepetalactone	
NcatNOR34: candidate nepetalactol oxidoreductase (NOR) from Nepeta cataria, protein SEQ ID NO: 578 (protein, listed as Nepeta cataria) MAFCRSSLLLRKALGGSRRAAAAATCSSAYACGWQSERGRWYSGGEGTTISAPGYHVNTAPSHMTGAVFWDKDKPITYEEFEMPRPKANEVLIKTKACGACHSDLHVIKGDLKFPCPCILGHEITGEVVEHGPLTETKYIERYPVGSKVIGAFIMPCGSCFYCSRGEDDLCEPYFAYNRAKGTLYDGQTRLFLRGSGKPVHMWSMSGLAEYCVTPVNGLGALPDTLPYAESSVLGCAVFTAYGAIAHAAEVKPGNSVAVIGIGGVGSSCLQIAKAFGASEIIAVDVEDGKLETAKTFGATHIINSRKEDAIAKIKELTDGRGVDIAVEAIGGPKTFAQCVGSVRAGGKAVMIGLSPTGGKGEVEITQLVRRKVKVIGSYGGRAMTDLPKLVELAEQGTFNLEAAVTRRYKFEEVAQAYQDLQNKTIVGRGVIEIM		can convert nepetalactol to nepetalactone; also recorded: can oxidize nepetalactol to nepetalactone	
